Reference: patent publication US20200188479A1, “APPARATUS AND METHODS FOR ADMINISTRATION OF A NAUSEOGENIC COMPOUND FROM A DRUG DELIVERY DEVICE” (INTARCIA THERAPEUTICS, INC., priority 2017, published 2020)
Where two headings read alike, the source gives them in different places.

Columns and labels:
[1] = Estimated d[drug]/dt if administered via single subdermal placement of an osmotic drug delivery device; parameters: species or system human
Text: (§1) Rate of change of drug concentration, particularly positive rate of change, d[drug]/dt, was derived as the first differential of the plasma concentration profile summed as described above. The d[drug]/dt was expressed with “d[drug]” units reduced to percent of steady state mean concentration of indicated doses, to enable comparisons between agents with differing potencies and pharmacokinetics. The “dt” units were hours. The X-axes in FIGS. 10 and 12 represent the d[drug]/dt thus obtained, in units of “% of steady-state mean (i.e., Css) per hour”.

[2] = Predicted human plasma concentration profiles of GLP-1 agonists dosed by periodic injection, model fitted to published human pharmacokinetic data; settings: for peak relative to mean / peak-trough: periodic injection dosed according to prescribers' information; for d[drug]/dt: periodic injection, percent of steady state mean concentration per hour
Text: Two compartments (SC and Central) are contemplated. A constant fraction of SC drug enters the Central compartment per unit time (defined by Ka). A constant fraction of Central drug is eliminated per unit time (defined by K). Central drug concentration (equal to plasma drug concentration) is an amount of drug in the Central compartment (A) diluted into its volume of distribution (Vd).
Plasma concentrations are each expressed as a fraction of […] plasma concentration i.e., steady state concentration (Css). The predictions are based upon published human pharmacokinetic data, with either raw plasma concentration data or data digitized from published figures for a single subcutaneous dose. The plasma concentrations were fitted to a model describing “absorption+single component decay” for each agent, as depicted in FIG. 13, based upon a rate constant for absorption from a subcutaneous depot into the plasma, and another rate constant for elimination from the plasma compartment. Data were fit using non-linear regression via an iterative least-squares method within Prism v7.0 (GraphPad Software Inc., San Diego, Calif.).
The derived plasma concentration profile for a single subcutaneous bolus was extended from the time of dosing until plasma concentrations were negligible. This profile was serially added to itself, staggered by a period determined by the indicated dose interval, and in a magnitude determined by the recommended dose increases. The numeric sum is shown as the black line in each plot.
as §1

[3] = cited from earlier work; for half-life in human serum: following subcutaneous administration
[4] = patients, cited from earlier work
human GLP-1 receptors = target: T1, human GLP-1 receptors (Homo sapiens, UniProt P43220); assay: Albumin binding assessed by potency shift: cAMP activation of GLP-1 receptors expressed in CHO-K1 cells at different HSA concentrations; type: cell-based; settings: potency decreased with increasing albumin concentration; final HSA 0-4%
T1 construct: expressed in transfected cells; host or cells: CHO-K1 (transient transfection, Lipofectamine 2000)
T1 sequence (P43220 24-463): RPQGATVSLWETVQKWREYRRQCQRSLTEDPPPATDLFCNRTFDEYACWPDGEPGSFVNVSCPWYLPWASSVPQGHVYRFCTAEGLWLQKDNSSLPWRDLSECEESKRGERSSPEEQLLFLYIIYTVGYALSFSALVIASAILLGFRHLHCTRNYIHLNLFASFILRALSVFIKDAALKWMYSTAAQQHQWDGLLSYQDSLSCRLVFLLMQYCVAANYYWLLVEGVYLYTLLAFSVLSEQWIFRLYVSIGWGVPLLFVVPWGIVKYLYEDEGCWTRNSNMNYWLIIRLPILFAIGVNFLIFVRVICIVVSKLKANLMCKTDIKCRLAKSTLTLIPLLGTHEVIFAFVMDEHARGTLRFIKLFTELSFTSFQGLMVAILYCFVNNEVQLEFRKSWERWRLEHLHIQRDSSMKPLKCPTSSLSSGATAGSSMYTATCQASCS
Text: EC50 values were converted to pEC50 values using the formula: pEC50=−Log(EC50).

[5] = periodic injection (weekly aqueous solution)
[6] = periodic injection of aqueous solution

For semaglutide, the “d[drug]/dt, times lower than d[exenatide]/dt” value [1] was 35 ×, the Tmax [2, 5] was about 76.8 h and the t1/2 [2, 5] was about 199 h. The “peak relative to mean” value [2] was 1.12 × mean, the peak-trough [2] was 26 % of peak and the “d[drug]/dt” value [2] was 3.3 % mean/hour. For the same substance, the “half-life in human serum” value [3] was about 165 h, the nausea reported ([4]; weekly injection) was 22% and the withdrawn ([4]; weekly injection) was 6%. For the same substance, the “albumin (HSA) concentration at mid-range of the potency change” value (human GLP-1 receptors) was about 0.6%.
For albiglutide, the peak-trough [2] is listed as 28 % of peak and the half-life ([3]; in humans) is listed as 140 to 190 h.
For “des-Pro^36-exendin-4(1-39)-Lys6-NH2 [lixisenatide]”, the “peak relative to mean” value [2] was 2.4 × mean, the peak-trough [2] was 97 % of peak and the Tmax [2, 6] was about 1.7 h. The t1/2 [2, 6] was about 3.0 h, the “d[drug]/dt” value [2] was 204 % mean/hour and the “half-life in human serum” value [3] was “approximately several hours”. The terminal half-life ([3]; humans, subcutaneous administration) was “approximately 3 h”, the nausea ([4]; daily injection, in 24 weeks) was 26% and the vomiting ([4]; daily injection, in 24 weeks) was 11%.
In the case of GLP-1, the t1/2 ([3]; peptidase prone GLP-1, by contrast to exenatide) is listed as about 3.4 min.
For dulaglutide, the peak-trough [2] was 63 % of peak.
